Changes are numbered by the printed parent chain. Like-named read-outs stand apart in the source and are kept apart here.
T1: MICA002-ECD-HISAvi (human, UniProt Q29983 24-308)
T1 construct: also called MICA002 polypeptide
T1 chain: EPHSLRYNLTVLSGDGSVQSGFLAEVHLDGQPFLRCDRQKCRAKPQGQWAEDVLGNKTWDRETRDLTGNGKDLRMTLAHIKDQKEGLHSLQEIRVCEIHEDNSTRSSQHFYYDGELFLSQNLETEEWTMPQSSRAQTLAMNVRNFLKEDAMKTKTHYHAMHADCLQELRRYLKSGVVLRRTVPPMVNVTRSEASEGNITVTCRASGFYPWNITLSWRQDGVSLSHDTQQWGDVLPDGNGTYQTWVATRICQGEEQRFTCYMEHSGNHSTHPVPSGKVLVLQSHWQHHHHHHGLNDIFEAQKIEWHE

T2: MICB005-ECD-HISAvi (human, UniProt Q29980 24-309)
T2 construct: Two sources under one name in the two kinetic assays; also called MICB005 polypeptide
T2 sequence: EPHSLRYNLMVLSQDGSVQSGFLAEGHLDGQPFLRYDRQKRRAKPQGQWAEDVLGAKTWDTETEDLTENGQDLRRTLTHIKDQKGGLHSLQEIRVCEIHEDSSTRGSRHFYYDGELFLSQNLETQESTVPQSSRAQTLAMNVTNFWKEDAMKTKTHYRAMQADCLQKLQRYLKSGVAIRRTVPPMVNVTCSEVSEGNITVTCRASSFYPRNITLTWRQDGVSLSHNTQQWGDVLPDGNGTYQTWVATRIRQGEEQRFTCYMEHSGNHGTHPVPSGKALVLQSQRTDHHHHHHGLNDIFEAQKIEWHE

T3: MICA004-ECD-HISAvi (human)
T3 construct: also called MICA004 polypeptide
T3 chain: T1 chain with G14W, C36Y, L122V, M129V, K173E, G175S, T181R, G206S, W210R, S215T

T4: MICA008-ECD-HISAvi (human)
T4 construct: Two sources under one name in the two kinetic assays; also called MICA008 polypeptide
T4 chain: T1 chain with G14W, C36Y, M129V, K173E, G206S, W210R, T213I, S215T, Q251R

T5: human MICA002 on cells (human)
T5 chain: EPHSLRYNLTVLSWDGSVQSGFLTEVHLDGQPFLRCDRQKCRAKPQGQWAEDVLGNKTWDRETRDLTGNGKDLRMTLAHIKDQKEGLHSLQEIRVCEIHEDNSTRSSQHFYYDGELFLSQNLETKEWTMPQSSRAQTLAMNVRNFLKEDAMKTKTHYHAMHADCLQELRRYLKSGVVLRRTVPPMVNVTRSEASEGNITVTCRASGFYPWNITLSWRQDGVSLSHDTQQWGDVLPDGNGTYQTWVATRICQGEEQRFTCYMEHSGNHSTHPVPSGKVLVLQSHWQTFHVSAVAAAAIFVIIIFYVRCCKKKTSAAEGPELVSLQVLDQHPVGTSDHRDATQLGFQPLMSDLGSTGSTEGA

B1: #39 (antibody, human IgG1, V domains shown)
VH: QVQLQQSGAELVRPGTSVKVSCKASGYAFTDYLIEWVKQRPGQGLEWIGGINPGSGSTNYNEKFKGKAILTADKSSSTAYMQLSSLTSDDSAVYFCARLDGNYVGYWGQGTTLTVSS
VL: DILLTQSPASLSASVGETVTITCRASGNIHNYLAWYQQKQGKSPQLLVYHAKTLADGVPSRFSGSGSGTQYSLKINSLQPEDFGSYYCQHFWSTPWTFGGGTKLEIK
notes: also called PL114G03; Hit ID 39
B2: 6E1.1.12 (antibody, human IgG1, kappa, V domains shown)
VH: QGQMQQSGAELVKPGASVKLSCKTSGFTFSDNYISWLKQKPGQSLEWIAWIYAGTGGSSYNQKFRDKAQLTVDTSSRTAYMQLSSLTTEDSAIYYCARHDYYGTSGAWFAYWGRGTLVTVSA
VL: DVLMTQTPLSLPVSLGDQASISCRSSQHIVHSNENTYLEWYLQKPGQSPKLLIYKVSNRFSGVPDRFSGSGSGTDFTLKISRVEAEDLGVYYCFQGSHVPWTFGGGTKVEIKR
B3: CM33322 (antibody, human IgG1, kappa)
heavy: not shown
light: DIVMTQTPLSSPVTLGQPASISCRSSQSLVHRDGNTYLSWFLQRPGQAPRLLIYRISNRFSGVPDRFSGSGAGTDFTLKISRVEAEDVGVYYCMQATQIPNTFGQGTKLEIKRTVAAPSVFIFPPSDEQLKSGTASVVCLLNNFYPREAKVQWKVDNALQSGNSQESVTEQDSKDSTYSLSSTLTLSKADYEKHKVYACEVTHQGLSSPVTKSFNRGEC
B4: #38 (antibody, human IgG1, V domains shown)
VH: QVQLQQSGAELARPGASVKLSCKASGYTFSIHWMQWVKQRPGQGLEWIGAIYPGNGDTKYTQKFKGKATLTADKSSSTAYMQLSNLASEDSAVYYCATLYGNYEAYWGQGTLVTVSA
VL: DIVLTQSPASLSASVGETVTITCGASENIYGALNWYQRKQGKSPQLLIYGTTNLADGMSSRFSGSGSGRQYSLKISSLHPDDVATYYCQNVLTTPPWTFGGGTKLEIK
notes: also called PL114H02; Hit ID 38
B5: D2M001-003 (antibody, V domains shown)
VH: QVQLVQSGAEVKKPGSSVKVSCKASGYAFHDYLIEWVRQAPGQGLEWIGGINPGSGSTNYAQKFQGRATLTADKSTSTAYMELSSLRSEDTAVYYCARLDGNYVGYWGQGTLVTVSS
VL: DIQMTQSPSSLSASVGDRVTITCRASGNIHNYLAWYQQKPGKSPKLLVYHAKTLQSGVPSRFSGSGSGTDYTLTISSLQPEDVATYYCQHFWSTPRTFGGGTKVEIK
notes: only the CDRs are tied to the name in the text; copies: 2 + 2
B6: #31 (antibody, human IgG1, V domains shown)
VH: EVQLQQSGPELVKPGASVKVSCKASGYAFTKYNIYWVKQSHGKSLEWIGYIDPYNGGTVQNQKFKGKATLTVDKSSSTAYMHLNSLTSEDSAVYYCATTDGYSLFTYWGQGTLVTVSS
VL: DIQMTQTTSSLSASLGDRVTISCRASQDIGNYLNWYQQKPDGTVKLLIYYTSRLHSGVPSRFSGSGSGTDYSLTISNLEQEDIATYFCQQGNTLPFTFGSGTKLEIK
notes: also called PL116D11; Hit ID 31
B7: #40 (antibody, human IgG1, V domains shown)
VH: B6 VH with E1Q, Q60Y, S118A
VL: DIQMTQTTSSLSASLGDRVTITCSAGQGINNYLNWYQQKPDGTVKLLIFYTSSLQSGVPSRFSGSGSGADYSLTISNLEPEDIATYYCQQYSKLPLTFGAGTKLELK
notes: also called PL113C03; Hit ID 40
B8: #34 (antibody, human IgG1, V domains shown)
VH: B6 VH with E1Q, Q5K
VL: DIVLTQSPTTMAASPGEKITITCSASSSISSNYLHWYQQKPGFSPKLLIYRTSNLASGVPARFSGSGSGTSYSLTIGTMEAEDVATYYCQQGSSIPFTFGSGTKLEIK
notes: also called PL111H04; Hit ID 34
B9: #36 (antibody, human IgG1, V domains shown)
VH: B6 VH with E1Q, Q60Y, S118A
VL: B6 VL with G30S
notes: also called PL116H11; Hit ID 36
B10: B10G5 (antibody, human IgG1, kappa, V domains shown)
VH: EVQLEESGPGLVKPSQSLSLTCTVTGYSITSDYAWNWIRQFPGNKLEWMGYISYSGSTNYNPSLKSRISITRDTSKNQFFLQLNSVITEDTATYYCARGGTYFDYWGQGTTLTVSS
VL: DIVLTQTTSYLSVSLGGRVTIACKASAHINNWLAWYQQKPGNAPRLLISDATSLETGVPSRFSGSGSGKDYTLSITSLQTEDVATYYCQHYWSTPWTFGGGTKLEIKR
notes: also called B10G5-2; P2B10G5

Experiments:
MICA002-ECD-HISAvi [1] = target: T1, MICA002-ECD-HISAvi; experiment: SPR (Carterra); antibody captured by anti-human Fc, monomeric ECD antigen injected;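 further: dissociation phase followed for about 10 min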
Experimental: (§1) The dissociation kinetics were monitored for approximately 10 minutes. The chip surface was regenerated between binding cycles with 10 mM glycine HCl, pH 1.7. Binding kinetics were analyzed using software supplied by the manufacturer.

MICB005-ECD-HISAvi [2] = target: T2, MICB005-ECD-HISAvi; experiment: as above
Experimental: as §1

MICA004-ECD-HISAvi [3] = target: T3, MICA004-ECD-HISAvi; experiment: as above
Experimental: as §1

MICA008-ECD-HISAvi [4] = target: T4, MICA008-ECD-HISAvi; experiment: as above
Experimental: as §1

human MICA002 on cells [5] = target: T5, human MICA002 on cells; experiment: flow cytometry, CHO-MICA002 cells
Experimental: CHO-MICA002 cells were incubated with titrated anti-MICA/B antibodies and then APC-labeled anti-human Fc antibody. […] The antibody binding signals of APC (gMFI) to MICA/B were measured by flow cytometry.
(§2) After an incubation time of 30 minutes, the plate was centrifuged and cells were washed with PBS three times. […] After mixing for 30 minutes at room temperature, cells were washed with PBS twice. Fluorescent signal was detected and quantified by flow cytometry (Attune™ CytPix™, ThermoFisher) within the population of live cells (viability dye PI negative).

human MICA004 on cells = target: T6, human MICA004 on cells (human); experiment: flow cytometry, CHO-MICA004 cells
T6 construct: whole, on cells; also called CHO-MICA004; C1R-MICA004
Experimental: (§3) IgG1 is an isotype control (IgG). The antibody binding signals of APC (gMFI) to MICA/B were measured by flow cytometry.
as §2

human MICA008 on cells [6] = target: T7, human MICA008 on cells (human); experiment: flow cytometry, CHO-MICA008 cells
T7 construct: whole, on cells; also called CHO-MICA008; C1R-MICA008
Experimental: as §3, §2

human MICA008 on cells [7] = target: T7, human MICA008 on cells; experiment: flow cytometry, HeLa cells (MICA008)
Experimental: as §3, §2

human MICB005 on cells = target: T8, human MICB005 on cells (human); experiment: flow cytometry, CHO-MICB005 cells
T8 construct: whole, on cells; also called CHO-MICB005; C1R-MICB005
Experimental: as §3, §2

MICB005-ECD-HISAvi [8] = target: T2, MICB005-ECD-HISAvi; experiment: BLI (GatorPrime); antibody on anti-hIgG Fc probe, monomeric antigen in solution;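 further: binding kinetics of anti-MICA/B antibodies measured by biolayer interferometry, with dissociation followed for about 10 min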
Experimental: (§4) The binding kinetics of the antibodies were also measured using the GatorPrime BLI (Biolayer Interferometry) system (Gator Bio, USA). Specifically, the anti-MICA/B antibodies were loaded with HFC (Anti-hIgG Fc, Gator Bio, Cat #: 160003). […] The dissociation kinetics were monitored for approximately 10 minutes. The probes were regenerated between binding cycles with Regeneration Buffer (Gator Bio, Cat #: 120012). Binding kinetics were analyzed using software supplied by the manufacturer.

MICA009Avi = target: T9, MICA009Avi (human); experiment: as above
T9 construct: extracellular domain
Experimental: as §4

MICA002-ECD-HISAvi [9] = target: T1, MICA002-ECD-HISAvi; experiment: as above
Experimental: as §4

MICA004-ECD-HISAvi [10] = target: T3, MICA004-ECD-HISAvi; experiment: as above
Experimental: as §4

MICA008-ECD-HISAvi [11] = target: T4, MICA008-ECD-HISAvi; experiment: as above
Experimental: as §4

human MICA002 on cells [12] = target: T5, human MICA002 on cells; experiment: flow cytometry, CHO-MICA002 cells

| Binder | Kd (MICA002-ECD-HISAvi [1]) [nM] | Kd (MICB005-ECD-HISAvi [2]) [nM] | Kd (MICA004-ECD-HISAvi [3]) [nM] | Kd (MICA008-ECD-HISAvi [4]) [nM] | EC50 (human MICA002 on cells [5]) [µg/mL] | EC50 (human MICA004 on cells) [µg/mL] | EC50 (human MICA008 on cells [6]) [µg/mL] | EC50 (human MICA008 on cells [7]) [µg/mL] | EC50 (human MICB005 on cells) [µg/mL] | Kd (MICB005-ECD-HISAvi [8]) [nM] | Kd (MICA009Avi) [nM] | binding result (MICA002-ECD-HISAvi [9]) | binding result (MICB005-ECD-HISAvi [8]) | binding result (MICA004-ECD-HISAvi [10]) | binding result (MICA008-ECD-HISAvi [11]) | EC50 (human MICA002 on cells [12]) [µg/mL] | binding result (MICA002-ECD-HISAvi [1]) | Kd (MICA004-ECD-HISAvi [10]) [nM] | Kd (MICA008-ECD-HISAvi [11]) [nM] |
| --- | --- | --- | --- | --- | --- | --- | --- | --- | --- | --- | --- | --- | --- | --- | --- | --- | --- | --- | --- |
| B1 | 14.4 | 5.37 | 139 | 54.8 | 3.68 | 7.27 | 1.31 | 4.27 | 1.4 | – | – | – | – | – | – | – | – | – | – |
| B2 | – | 8.62 | – | – | 0.882 | 0.239 | 0.15 | 0.269 | 0.184 | 4.54 | 3.94 | – | – | – | – | – | – | – | – |
| B3 | – | – | – | – | – | – | – | – | – | – | – | no binding | no binding | no binding | no binding | – | – | – | – |
| B4 | 2.49 | 1.78 | 3.77 | 7.04 | 2.48 | 3.93 | 1.1 | 1.85 | 1.42 | – | – | – | – | – | – | – | – | – | – |
| B5 | – | – | – | – | – | – | – | – | – | – | – | – | – | – | – | 3.59 | – | – | – |
| B6 | 13.2 | 15 | 25.3 | 14.4 | 0.232 | 0.221 | 0.051 | 0.183 | 0.21 | – | – | – | – | – | – | – | – | – | – |
| B7 | 13.9 | 45.8 | 30.4 | 20.5 | 0.176 | 0.306 | 0.085 | 0.183 | 0.445 | – | – | – | – | – | – | – | – | – | – |
| B8 | 24.9 | 38 | 44.5 | 29.2 | 0.144 | 0.202 | 0.048 | 0.122 | 0.278 | – | – | – | – | – | – | – | – | – | – |
| B9 | 20.7 | 23.1 | 40.1 | 21.2 | 0.2 | 0.248 | 0.063 | 0.189 | 0.249 | – | – | – | – | – | – | – | – | – | – |
| B10 | – | 2.27 | 6.92 | 0.846 | – | – | – | – | – | 1.35 | 0.716 | – | – | – | – | – | no binding | 1.16 | 0.625 |

Reference: patent publication US20250368742A1 (D2M BIOTHERAPEUTICS, published 2025)
